# Laboratory results from publication doi:10.1101/207324.
# What was measured:
# human S100A5 (human) = target: T1, human S100A5 (human); assay: ITC
# T1 sequence (P33763 1-92, looked up): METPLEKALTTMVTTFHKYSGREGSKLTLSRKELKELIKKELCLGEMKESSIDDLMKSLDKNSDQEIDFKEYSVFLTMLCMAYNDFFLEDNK
# human S100A6 (human) = assay: ITC
substance,measurement,setting,value
peptide from Siah-interacting protein (SIP) (from UniProt Q9HB71 188-218),Kd,human S100A5 (human),> 100 µM
same,Kd,human S100A6 (human),20 µM
